# B1: Elongin-A2 (Homo sapiens), Q8IYF1 (parent)
# chain: MAAGSTTLHAVEKLQVRLATKTEPKKLEKYLQKLSALPMTADILAETGIRKTVKRLRKHQHVGDFARDLAARWKKLVLVDRNTRPGPQDPEESASRQRFGEALQDQEKAWGFPENATAPRSPSHSPEHRRTARRTPPGQQRPHPRSHSREPRAERKCPRIAPADSGRYRASPTRTAPLRMPEGPEPAAPGKQPGRGHTHAAQGGPLLCPGCQGQPQGKAVVSHSKGHKSSRQEKRPLCAQGDWHSPTLIREKSCGACLREETPRMPSWASARDRQPSDFKTDKEGGQAGSGQRVPALEEAPDSHQKRPQHSHSNKKRPSLDGRDPGNGTHGLSPEEKEQLSNDRETQEGKPPTAHLDRTSVSSLSEVEEVDMAEEFEQPTLSCEKYLTYDQLRKQKKKTGKSATTALGDKQRKANESKGTRESWDSAKKLPPVQESQSERLQAAGADSAGPKTVPSHVFSELWDLSEAWMQANYDPLSDSDSMTSQAKPEALSSPKFREEAAFPGRRVNAKMPVYSGSRPACQLQVPTLRQQCAQVLRNNPDALSDVGEVPYWVLEPVLEGWRPDQLYRRKKDNHALVRETDELRRNHCFQDFKEEKPQENKTWREQYLRLPDAPEQRLRVMTTNIRSARGNNPNGREAKMICFKSVAKTPYDTSRRQEKSAGDADPENGEIKPASKPAGSSHTPSSQSSSGGGRDSSSSILRWLPEKRANPCLSSSNEHAAPAAKTRKQAAKKVAPLMAKAIRDYKRRFSRR
# partner: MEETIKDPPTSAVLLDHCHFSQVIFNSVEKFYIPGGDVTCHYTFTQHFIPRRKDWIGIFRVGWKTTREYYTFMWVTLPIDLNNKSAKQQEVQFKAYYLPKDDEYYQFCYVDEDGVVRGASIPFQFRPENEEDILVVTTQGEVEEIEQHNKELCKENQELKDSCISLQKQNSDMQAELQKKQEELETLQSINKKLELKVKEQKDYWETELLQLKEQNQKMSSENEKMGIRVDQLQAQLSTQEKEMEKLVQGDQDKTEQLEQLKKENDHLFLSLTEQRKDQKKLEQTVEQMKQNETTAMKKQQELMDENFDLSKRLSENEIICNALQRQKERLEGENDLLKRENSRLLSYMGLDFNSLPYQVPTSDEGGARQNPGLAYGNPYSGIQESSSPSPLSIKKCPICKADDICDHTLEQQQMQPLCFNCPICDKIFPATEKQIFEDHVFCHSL
# B2: Coiled-coil domain-containing protein 68 (Homo sapiens), Q9H2F9 (parent)
# chain: MTTVTVTTEIPPRDKMEDNSALYESTSAHIIEETEYVKKIRTTLQKIRTQMFKDEIRHDSTNHKLDAKHCGNLQQGSDSEMDPSCCSLDLLMKKIKGKDLQLLEMNKENEVLKIKLQASREAGAAALRNVAQRLFENYQTQSEEVRKKQEDSKQLLQVNKLEKEQKLKQHVENLNQVAEKLEEKHSQITELENLVQRMEKEKRTLLERKLSLENKLLQLKSSATYGKSCQDLQREISILQEQISHLQFVIHSQHQNLRSVIQEMEGLKNNLKEQDKRIENLREKVNILEAQNKELKTQVALSSETPRTKVSKAVSTSELKTEGVSPYLMLIRLRK
# B3: LHFPL tetraspan subfamily member 5 protein (Homo sapiens), Q8TAF8 (parent)
# chain: MVKLLPAQEAAKIYHTNYVRNSRAVGVMWGTLTICFSVLVMALFIQPYWIGDSVNTPQAGYFGLFSYCVGNVLSSELICKGGPLDFSSIPSRAFKTAMFFVALGMFLIIGSIICFSLFFICNTATVYKICAWMQLAAATGLMIGCLVYPDGWDSSEVRRMCGEQTGKYTLGHCTIRWAFMLAILSIGDALILSFLAFVLGYRQDKLLPDDYKADGTEEV
# B4: Microtubule-associated tumor suppressor candidate 2 (Homo sapiens), Q5JR59-3 (parent)
# chain: MGHCCCKPYNCLQCLDKTNESALVKEKELSIELANIRDEVAFHTAKCEKLQKEKEELERRFEDEVKRLGWQQQAELQELEERLQLQFEAEMARLQEEHGDQLLSIRCQHQEQVEDLTASHDAALLEMENNHTVAITILQDDHDHKVQELMSTHELEKKELEENFEKLRLSLQDQVDTLTFQSQSLRDRARRFEEALRKNTEEQLEIALAPYQHLEEDMKSLKQVLEMKNQQIHEQEKKILELEKLAEKNIILEEKIQVLQQQNEDLKARIDQNTVVTRQLSEENANLQEYVEKETQEKKRLSRTNEELLWKLQTGDPTSPIKLSPTSPVYRGSSSGPSSPARVSTTPR
# partner: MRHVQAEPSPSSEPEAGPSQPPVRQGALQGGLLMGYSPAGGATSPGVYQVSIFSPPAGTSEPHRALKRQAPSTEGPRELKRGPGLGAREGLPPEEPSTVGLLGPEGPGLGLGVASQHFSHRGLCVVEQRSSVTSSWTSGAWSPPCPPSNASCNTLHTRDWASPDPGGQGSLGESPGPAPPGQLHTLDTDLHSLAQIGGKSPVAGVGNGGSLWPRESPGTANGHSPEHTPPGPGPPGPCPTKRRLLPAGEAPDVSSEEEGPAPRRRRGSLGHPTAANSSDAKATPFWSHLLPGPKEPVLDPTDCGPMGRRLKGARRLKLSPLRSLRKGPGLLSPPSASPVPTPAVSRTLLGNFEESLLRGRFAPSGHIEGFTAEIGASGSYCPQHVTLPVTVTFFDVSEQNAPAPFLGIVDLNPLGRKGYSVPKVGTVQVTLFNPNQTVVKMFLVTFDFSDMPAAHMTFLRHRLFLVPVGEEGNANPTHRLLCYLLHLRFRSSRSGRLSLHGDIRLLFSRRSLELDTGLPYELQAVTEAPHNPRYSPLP
# B5: Tetraspanin-5 (Homo sapiens), P62079 (parent)
# chain: MSGKHYKGPEVSCCIKYFIFGFNVIFWFLGITFLGIGLWAWNEKGVLSNISSITDLGGFDPVWLFLVVGGVMFILGFAGCIGALRENTFLLKFFSVFLGIIFFLELTAGVLAFVFKDWIKDQLYFFINNNIRAYRDDIDLQNLIDFTQEYWQCCGAFGADDWNLNIYFNCTDSNASRERCGVPFSCCTKDPAEDVINTQCGYDARQKPEVDQQIVIYTKGCVPQFEKWLQDNLTIVAGIFIGIALLQIFGICLAQNLVSDIEAVRASW
# partner: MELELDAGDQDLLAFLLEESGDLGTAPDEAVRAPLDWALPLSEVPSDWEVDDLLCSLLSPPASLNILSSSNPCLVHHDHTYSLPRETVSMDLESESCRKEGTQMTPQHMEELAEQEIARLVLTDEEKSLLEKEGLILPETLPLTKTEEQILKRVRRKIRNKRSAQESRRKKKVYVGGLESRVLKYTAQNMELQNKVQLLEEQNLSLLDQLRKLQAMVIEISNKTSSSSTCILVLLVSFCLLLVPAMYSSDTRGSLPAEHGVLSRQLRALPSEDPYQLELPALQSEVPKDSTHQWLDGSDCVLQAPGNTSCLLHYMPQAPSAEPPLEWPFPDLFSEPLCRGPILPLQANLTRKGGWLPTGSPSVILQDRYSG
# B6: Cyclin-dependent kinase 2-interacting protein (Homo sapiens), Q9BW66 (parent)
# chain: MEAKTLGTVTPRKPVLSVSARKIKDNAADWHNLILKWETLNDAGFTTANNIANLKISLLNKDKIELDSSSPASKENEEKVCLEYNEELEKLCEELQATLDGLTKIQVKMEKLSSTTKGICELENYHYGEESKRPPLFHTWPTTHFYEVSHKLLEMYRKELLLKRTVAKELAHTGDPDLTLSYLSMWLHQPYVESDSRLHLESMLLETGHRAL
# partner: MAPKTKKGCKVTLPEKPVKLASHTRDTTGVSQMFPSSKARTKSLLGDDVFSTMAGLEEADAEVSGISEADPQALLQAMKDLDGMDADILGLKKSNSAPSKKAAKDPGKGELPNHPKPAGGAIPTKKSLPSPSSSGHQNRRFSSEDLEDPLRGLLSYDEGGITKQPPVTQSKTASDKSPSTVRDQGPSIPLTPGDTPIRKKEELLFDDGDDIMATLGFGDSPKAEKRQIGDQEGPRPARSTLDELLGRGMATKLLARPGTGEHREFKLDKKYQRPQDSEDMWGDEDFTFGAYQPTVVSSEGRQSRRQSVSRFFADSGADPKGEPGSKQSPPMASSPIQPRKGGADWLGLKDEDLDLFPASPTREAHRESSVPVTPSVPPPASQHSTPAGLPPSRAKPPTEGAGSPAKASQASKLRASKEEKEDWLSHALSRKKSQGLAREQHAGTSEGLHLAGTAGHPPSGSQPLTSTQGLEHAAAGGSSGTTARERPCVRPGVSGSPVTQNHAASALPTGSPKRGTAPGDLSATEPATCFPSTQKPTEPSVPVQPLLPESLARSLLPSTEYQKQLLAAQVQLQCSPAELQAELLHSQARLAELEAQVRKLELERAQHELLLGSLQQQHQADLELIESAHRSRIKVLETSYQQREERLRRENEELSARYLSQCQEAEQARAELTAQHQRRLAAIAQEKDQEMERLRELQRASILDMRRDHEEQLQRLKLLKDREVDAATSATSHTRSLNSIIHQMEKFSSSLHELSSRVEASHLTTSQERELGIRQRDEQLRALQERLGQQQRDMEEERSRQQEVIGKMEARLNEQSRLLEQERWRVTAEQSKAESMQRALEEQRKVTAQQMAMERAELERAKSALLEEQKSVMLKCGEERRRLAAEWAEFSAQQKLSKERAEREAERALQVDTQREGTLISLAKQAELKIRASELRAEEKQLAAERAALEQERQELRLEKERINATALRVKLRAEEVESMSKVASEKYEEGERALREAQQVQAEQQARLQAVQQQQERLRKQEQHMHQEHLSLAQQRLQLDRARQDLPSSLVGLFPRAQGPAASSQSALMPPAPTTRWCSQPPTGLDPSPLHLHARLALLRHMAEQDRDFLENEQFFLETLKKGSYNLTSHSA
# Variants of: B1
# Details: with caco2_human CALCOCO2, Q13137
row,effect of a mutation on the interaction,Variant
1,with no effect,T6S
2,with no effect,D302H
3,with no effect,C254F

# Variants of: B2
# Details: with tfp11_human TFIP11, Q9UBB9
# tfp11_human TFIP11, Q9UBB9, sequence (Q9UBB9 whole entry): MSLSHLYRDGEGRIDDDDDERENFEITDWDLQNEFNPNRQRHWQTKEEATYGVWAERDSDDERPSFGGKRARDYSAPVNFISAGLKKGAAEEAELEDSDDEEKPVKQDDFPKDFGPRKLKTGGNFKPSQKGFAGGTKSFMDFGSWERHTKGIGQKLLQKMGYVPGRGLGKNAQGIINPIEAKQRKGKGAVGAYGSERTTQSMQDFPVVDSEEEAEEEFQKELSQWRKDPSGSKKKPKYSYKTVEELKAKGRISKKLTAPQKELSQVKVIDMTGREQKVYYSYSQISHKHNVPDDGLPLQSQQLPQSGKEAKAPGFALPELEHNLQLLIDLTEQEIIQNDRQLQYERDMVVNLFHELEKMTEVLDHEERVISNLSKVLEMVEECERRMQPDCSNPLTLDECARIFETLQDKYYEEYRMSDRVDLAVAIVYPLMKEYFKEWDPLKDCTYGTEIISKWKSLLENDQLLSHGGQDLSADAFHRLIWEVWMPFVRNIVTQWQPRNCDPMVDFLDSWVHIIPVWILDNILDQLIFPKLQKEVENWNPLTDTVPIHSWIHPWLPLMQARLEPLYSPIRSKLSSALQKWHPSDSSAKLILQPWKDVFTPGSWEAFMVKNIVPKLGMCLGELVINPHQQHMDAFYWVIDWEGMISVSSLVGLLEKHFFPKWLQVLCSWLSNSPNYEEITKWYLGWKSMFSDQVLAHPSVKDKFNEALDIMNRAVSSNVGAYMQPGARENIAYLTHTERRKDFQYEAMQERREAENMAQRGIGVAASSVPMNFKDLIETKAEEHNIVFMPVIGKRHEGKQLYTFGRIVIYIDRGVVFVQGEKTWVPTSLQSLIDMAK
row,effect of a mutation on the interaction,Variant
1,with no effect,D151G
2,with no effect,V249A
3,with no effect,L100V

# Variants of: B3
# Details: with BCL2L13, Q9BXK5
# BCL2L13, Q9BXK5, sequence (Q9BXK5 whole entry): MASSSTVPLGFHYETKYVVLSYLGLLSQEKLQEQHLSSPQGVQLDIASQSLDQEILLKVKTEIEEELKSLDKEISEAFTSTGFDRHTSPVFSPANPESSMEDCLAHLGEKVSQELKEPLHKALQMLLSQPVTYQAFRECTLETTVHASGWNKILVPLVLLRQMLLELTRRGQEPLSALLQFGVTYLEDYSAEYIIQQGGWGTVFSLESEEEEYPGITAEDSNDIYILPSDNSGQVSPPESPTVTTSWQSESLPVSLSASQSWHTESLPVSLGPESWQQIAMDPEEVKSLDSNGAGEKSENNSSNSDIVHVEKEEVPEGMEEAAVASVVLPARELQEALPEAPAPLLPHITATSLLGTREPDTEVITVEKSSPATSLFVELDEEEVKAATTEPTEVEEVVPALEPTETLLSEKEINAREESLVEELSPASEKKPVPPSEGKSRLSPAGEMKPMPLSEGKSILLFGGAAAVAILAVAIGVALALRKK
row,effect of a mutation on the interaction,Variant
1,with no effect,K205N

# Variants of: B4
# Details: with atosb_human ATOSB
row,effect of a mutation on the interaction,Variant
1,with no effect,A89V

# Variants of: B5
# Details: with creb3_human CREB3, O43889
row,effect of a mutation on the interaction,Variant
1,with no effect,T218M

# Variants of: B6
# Details: with fbf1_human FBF1, Q8TES7
row,effect of a mutation on the interaction,Variant
1,with no effect,R164H

# Variants of: B6
# Details: with fbf1_human FBF1, Q8TES7
# Remark: another data set of the same source
row,effect of a mutation on the interaction,Variant
1,with no effect,D177N

# Source: IntAct's records for PubMed 31515488
